These results are taken from patent US20250059282A1 (University of Texas, published 2025).

Changes are numbered by the printed parent chain. Like-named read-outs stand apart in the source and are kept apart here.

The target in test [1] is T1, Cyno PD-L2-Fc (cynomolgus, UniProt A0A2K5U5Z4 20-220).
T1 construct: also called cynomolgus PD-L2; not shown: Fc
T1 sequence: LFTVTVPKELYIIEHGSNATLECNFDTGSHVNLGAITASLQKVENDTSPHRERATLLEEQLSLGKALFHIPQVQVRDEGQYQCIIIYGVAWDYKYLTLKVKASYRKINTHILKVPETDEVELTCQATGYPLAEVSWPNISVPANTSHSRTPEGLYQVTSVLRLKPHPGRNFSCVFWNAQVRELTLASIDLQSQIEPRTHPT
Briefly: ForteBio, IgG, avid.

Test [2] concerns the target T2, Mouse PD-L2-Fc (mouse, UniProt Q9WUL5 20-219, limits assumed).
T2 construct: also called murine PD-L2; not shown: Fc
T2 sequence (looked up): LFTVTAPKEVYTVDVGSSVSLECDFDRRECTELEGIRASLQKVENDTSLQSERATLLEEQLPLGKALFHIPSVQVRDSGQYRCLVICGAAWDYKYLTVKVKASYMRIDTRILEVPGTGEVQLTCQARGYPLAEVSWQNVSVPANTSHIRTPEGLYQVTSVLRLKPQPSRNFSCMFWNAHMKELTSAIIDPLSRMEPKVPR
In words: ForteBio, IgG, avid. (In general: In BLI a coated tip is dipped into the sample, and binding shifts an interference pattern.)

The target in test [3] is T3, Cyno PD-L1-Fc (cynomolgus, UniProt G7PSE7 19-238).
T3 construct: also called cynomolgus PD-L1
In words: ForteBio, IgG, avid.

For test [4], the target named is T4, Mouse PD-L1-Fc (mouse, UniProt Q9EP73 19-239, limits assumed).
T4 construct: also called murine PD-L1; not shown: Fc
In words: ForteBio, IgG, avid.

Test [5] has as its target T5, Human PD-L2-HIS (human, UniProt Q9BQ51 20-220).
T5 construct: also called His-tagged human PD-L2; not shown: His tag
T5 sequence: T1 sequence with A19V, S62P, L67S, I139V, H166P, A178T, Q179H, I194M
In words: ForteBio, IgG, monovalent.

For test [6], the target named is T6, Human PD-L1-HIS (human, UniProt Q9NZQ7 19-238).
T6 construct: also called HIS-tagged monovalent PD-L1; His-tagged human PD-L1; not shown: His tag
Briefly: ForteBio, IgG, monovalent.

Test [7] concerns the target T7, Human PD-L2-Fc (human, UniProt Q9BQ51 20-220).
T7 construct: also called dimeric PD-L2; PD-L2 (dimeric ligand); not shown: human IgG1 Fc constant region
T7 sequence: T1 sequence with A19V, S62P, L67S, I139V, H166P, A178T, Q179H, I194M
In words: ForteBio Octet, Fab, monovalent. As to the method:
(§1) ForteBio KD measurements—ForteBio affinity measurements were performed on an Octet® RED384 generally as previously described (see, e.g., Estep et al., 2013). Briefly, ForteBio affinity measurements were performed by loading IgGs on-line onto AHQ sensors. Sensors were equilibrated off-line in assay buffer for 30 min and then monitored on-line for 60 seconds for baseline establishment. Sensors with loaded IgGs were exposed to 100 nM antigen for 3 minutes, and afterwards were transferred to assay buffer for 3 min for off-rate measurement. For monovalent affinity assessment Fabs were used instead of IgGs. For this assessment the […] Fc fusion antigen was loaded on-line onto the AHQ sensors. Sensors were equilibrated off-line in assay buffer for 30 min and then monitored on-line for 60 seconds for baseline establishment. Sensors with loaded antigen were exposed to 100 nM Fab for 3 minutes, and afterwards they were transferred to assay buffer for 3 min for off-rate measurement. All kinetics were analyzed using the 1:1 binding model.

A further test has as its target human PD-L1 on CHO cells (human, UniProt Q9NZQ7 19-290). Briefly: cell-based or functional assay.
The target in a further test is T8, human PD-L2 on CHO cells (human, UniProt Q9BQ51 20-273).
T8 sequence: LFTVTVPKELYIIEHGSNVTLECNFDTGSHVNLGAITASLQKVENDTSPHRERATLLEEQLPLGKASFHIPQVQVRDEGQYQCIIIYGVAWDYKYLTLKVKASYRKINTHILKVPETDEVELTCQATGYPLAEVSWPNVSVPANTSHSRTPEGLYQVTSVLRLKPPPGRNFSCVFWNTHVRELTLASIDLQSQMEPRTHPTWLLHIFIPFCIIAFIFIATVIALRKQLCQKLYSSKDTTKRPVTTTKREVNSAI
In words: cell-based or functional assay.

Test [8] concerns the target T1, Cyno PD-L2-Fc. Briefly: ForteBio, IgG, avid. This is another data set of the same source.
Test [9] has as its target T2, Mouse PD-L2-Fc. In words: ForteBio, IgG, avid. The source holds these as a separate data set.
For test [10], the target named is T3, Cyno PD-L1-Fc. Briefly: ForteBio, IgG, avid. This is another data set of the same source.
Test [11] deals with T4, Mouse PD-L1-Fc. Briefly: ForteBio, IgG, avid. The source holds these as a separate data set.
The target in test [12] is T5, Human PD-L2-HIS. In words: ForteBio, IgG, monovalent. The source holds these as a separate data set.
The target of test [13] is T6, Human PD-L1-HIS. In words: ForteBio, IgG, monovalent. This is another data set of the same source.
In test [14] the target is T9, Human b-PD-L2-His (human, UniProt Q9BQ51 20-220, biotinylated (b-); sites not stated).
T9 construct: Antigen of the MSD-SET measurements; also called biotinylated human PD-L2-His; not shown: His tag
T9 sequence: T1 sequence with A19V, S62P, L67S, I139V, H166P, A178T, Q179H, I194M
Briefly: MSD-SET, Fab, monovalent. As to the method:
(§2) Briefly, solution equilibrium titrations (SET) were performed in PBS +0.1% IgG-Free BSA (PBSF) with antigen held constant at 50 pM and incubated with 3- to 5-fold serial dilutions of Fab starting at 20 nM. Antibodies (20 nM in PBS) were coated onto standard bind MSD®-ECL plates overnight at 4° C. or at room temperature for 30 min. Plates were then blocked by BSA for 30 min with shaking at 700 rpm, followed by three washes with wash buffer (PBSF+0.05% Tween 20). SET samples were applied and incubated on the plates for 150 s with shaking at 700 rpm followed by one wash. Antigen captured on a plate was detected with 250 ng/mL sulfotag-labeled streptavidin in PBSF by incubation on the plate for 3 min. The plates were washed three times with wash buffer and then read on the MSD® Sector Imager 2400 instrument using 1× Read Buffer T with surfactant. The percent free antigen was plotted as a function of titrated antibody in Prism and fit to a quadratic equation to extract the KD. To improve throughput, liquid handling robots were used throughout MSD®-SET experiments, including SET sample preparation.

Test [15] addresses T10, Human PD-L1-Fc (human, UniProt Q9NZQ7 19-238).
T10 construct: also called dimeric PD-L1; PD-L1 (dimeric ligand); not shown: human IgG1 Fc constant region
In words: ForteBio, Fab, monovalent. As to the method:
as §1

Test [16] concerns the target T7, Human PD-L2-Fc. Briefly: ForteBio, Fab, monovalent. As to the method: as §1
In test [17] the target is T11, Human b-PD-L1-His (human, UniProt Q9NZQ7 19-238, biotinylated (b-); sites not stated).
T11 construct: Antigen of the MSD-SET measurements; also called biotinylated human PD-L1-His; not shown: His tag
Briefly: MSD-SET, Fab, monovalent. How it is done: as §2

The target of test [18] is T11, Human b-PD-L1-His. In words: MSD-SET, Fab, monovalent. As to the method:
as §2
This is another data set of the same source.

Test [19] deals with T9, Human b-PD-L2-His. In words: MSD-SET, Fab, monovalent. How it is done:
as §2
The source holds these as a separate data set.

Test [20] concerns the target T10, Human PD-L1-Fc. In words: ForteBio Octet, Fab, monovalent. As to the method:
as §1

T3 sequence (G7PSE7 entry or part of it limits assumed): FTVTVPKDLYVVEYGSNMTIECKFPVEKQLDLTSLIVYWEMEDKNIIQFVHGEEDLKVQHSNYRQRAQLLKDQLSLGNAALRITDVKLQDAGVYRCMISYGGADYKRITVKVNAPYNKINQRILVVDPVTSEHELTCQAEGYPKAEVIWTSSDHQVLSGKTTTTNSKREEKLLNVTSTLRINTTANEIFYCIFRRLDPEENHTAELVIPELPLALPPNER
T4 sequence (Q9EP73 19-239 limits assumed): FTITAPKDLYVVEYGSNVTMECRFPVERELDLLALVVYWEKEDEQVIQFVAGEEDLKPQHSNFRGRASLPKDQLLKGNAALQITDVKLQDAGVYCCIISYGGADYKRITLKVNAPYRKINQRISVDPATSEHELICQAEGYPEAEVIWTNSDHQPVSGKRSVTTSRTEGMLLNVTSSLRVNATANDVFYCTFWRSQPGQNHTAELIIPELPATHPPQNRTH
T10 sequence (Q9NZQ7 19-238 limits assumed): as the sequence (G7PSE7 entry or part of it limits assumed) above, with T33A, S34A, N62S, Q68R, R82Q, L173F, A185T, I192T, L215H counted along it
T11 sequence (Q9NZQ7 19-238 limits assumed): as the sequence (G7PSE7 entry or part of it limits assumed) above, with T33A, S34A, N62S, Q68R, R82Q, L173F, A185T, I192T, L215H counted along it
T6 sequence (Q9NZQ7 19-238 limits assumed): as the sequence (G7PSE7 entry or part of it limits assumed) above, with T33A, S34A, N62S, Q68R, R82Q, L173F, A185T, I192T, L215H counted along it
Sequence of human PD-L1 on CHO cells (Q9NZQ7 19-290 limits assumed): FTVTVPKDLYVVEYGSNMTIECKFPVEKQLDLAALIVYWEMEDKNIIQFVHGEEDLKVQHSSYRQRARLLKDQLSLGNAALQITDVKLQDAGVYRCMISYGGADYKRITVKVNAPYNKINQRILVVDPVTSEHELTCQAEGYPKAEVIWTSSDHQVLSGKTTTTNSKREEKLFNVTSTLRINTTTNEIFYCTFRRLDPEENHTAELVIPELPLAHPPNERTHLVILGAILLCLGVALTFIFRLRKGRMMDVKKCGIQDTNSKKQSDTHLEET

B1: BiPDL3-34 (antibody, V domains shown)
VH: QVQLQQWGAGLLKPSETLSLTCAVYGGSLSGYPWSWIRQPPGKGLEWIGETDVSGWTDYNPSLKSRVTISVDTSKNQFSLKLSSVTAADTAVYYCARDGRRMGTPSFDIWGQGTMVTVSS
VL: DIQMTQSPSSVSASVGDRVTITCRASQDISSFLAWYQQKPGKAPKLLIYAASSLQDGVPSRFSGSGSGTDFTLTISSLQPEDFATYYCQKSVYFPPTFGGGTKVEIK
notes: IgG; also called ADI-37468; 37468
By Kd is commonly meant the constant that tells how readily two partners part at equilibrium. High values mean a looser complex, low ones a tighter complex. With B1, the Kd was 0.677 nM in the test with Cyno PD-L2-Fc [1]; 0.484 nM with Mouse PD-L2-Fc [2]; 0.431 nM with Cyno PD-L1-Fc [3]; 31.6 nM with Mouse PD-L1-Fc [4]; 0.844 nM with Human PD-L2-HIS [5]; 17.8 nM with Human PD-L1-HIS [6].

B2: BiPDL3-13 Fab (Fab, V domains shown)
VH: B1 VH
VL: B1 VL with M4L, D28G, F32W, D56S, K90Q, S91Y
notes: Fab made by papain digestion of the IgG
In the case of B2, the Kd in the test with Human PD-L2-Fc [7] was 16 nM.

B3: BiPDL3-24 (antibody, V domains shown)
VH: B1 VH
VL: B1 VL with D28G, S31N, D56S, S91A
notes: IgG; also called ADI-37465; 37465
In the case of B3, the Kd with Cyno PD-L2-Fc [1] is 0.605 nM; with Mouse PD-L2-Fc [2], 0.553 nM; with Cyno PD-L1-Fc [3], 0.396 nM; with Mouse PD-L1-Fc [4] it was 2.65 nM; with Human PD-L2-HIS [5], 0.868 nM; in the test with Human PD-L1-HIS [6], 13.4 nM.

B4: BiPDL3-44 (antibody, V domains shown)
VH: B1 VH
VL: B1 VL with D28G, S31T, S53A, Q55H, D56S, K90R, S91A
notes: IgG; also called ADI-37475; 37475
Take B4: the Kd is 0.603 nM with Cyno PD-L2-Fc [1]; 0.552 nM in the test with Mouse PD-L2-Fc [2]; 0.455 nM with Cyno PD-L1-Fc [3]; 42 nM with Mouse PD-L1-Fc [4]; 1.45 nM with Human PD-L2-HIS [5]; 30.2 nM with Human PD-L1-HIS [6].

B5: BiPDL4-44 (antibody, V domains shown)
VH: QVQLVESGGGVIQPGRSLRLSCAASGFTFSAYLMHWVRQAPGKGLEWVAAIGYDGMNKYYADSVKGRFTISRDNSKNTLYLQMNSLRAEDTAVYYCARAGIEYSYAYTDYWGQGTLVTVSS
VL: EIVLTQSPGTLSLSPGERATLSCRASHSVVSSYLAWYQQKPGQAPRLLIYGASSREDGIPDRFSGSGSGTDFTLTISRLEPEDFAVYYCVQFGWWPPRTFGGGTKVEIK
notes: Fourth generation, IgG
Take B5: the “EC50 (read off the curve); Fold induction of luciferase, Promega: CHO-PD-L1/PD-L2 dual cells with PD-1 Jurkat reporter cells (PD-L1 and PD-L2 not separable)” value with human PD-L1 on CHO cells and in the test with human PD-L2 on CHO cells was ~1 nM in each case. Further, the Kd with Cyno PD-L2-Fc [8] was found to be 0.417 nM; with Mouse PD-L2-Fc [9] it was 4.14 nM; in the test with Cyno PD-L1-Fc [10], 0.555 nM; in the test with Mouse PD-L1-Fc [11] it was 0.793 nM; with Human PD-L2-HIS [12] it was 0.889 nM; with Human PD-L1-HIS [13], 7.89 nM.

B6: BiPDL4-24 Fab (Fab, V domains shown)
VH: B5 VH with I12V, S30D, A31E, L33G, A50V, M56L
VL: B5 VL with H27N, S53A, E56A, D57N
notes: as for B2
For B6, the values for the Kd with Human b-PD-L2-His [14], with Human PD-L1-Fc [15] and with Human PD-L2-Fc [16] were 0.12 nM, 6.57 nM and 0.475 nM, respectively.

B7: BiPDL4-24 (antibody, V domains shown)
VH: B5 VH with I12V, S30D, A31E, L33G, A50V, M56L
VL: B5 VL with H27N, S53A, E56A, D57N
notes: Fourth generation, IgG
In the case of B7, the Kd was found to be 0.458 nM with Cyno PD-L2-Fc [8]; 6.77 nM in the test with Mouse PD-L2-Fc [9]; 0.838 nM in the test with Cyno PD-L1-Fc [10]; 0.677 nM in the test with Mouse PD-L1-Fc [11]; 0.497 nM with Human PD-L2-HIS [12]; 7.24 nM in the test with Human PD-L1-HIS [13].

B8: BiPDL4-34 Fab (Fab, V domains shown)
VH: B5 VH
VL: B5 VL with H27Q, S28F, V30Y, Y33D, S54A, E56A, D57A, V90M
notes: as for B2
Regarding B8, the Kd with Human b-PD-L1-His [17] came to 0.96 nM; in the test with Human b-PD-L2-His [14], 0.052 nM; with Human PD-L1-Fc [15], 2.17 nM; with Human PD-L2-Fc [16], 0.56 nM; with Human b-PD-L1-His [18], 0.96 nM; with Human b-PD-L2-His [19], 0.052 nM. For the same molecule, the values for the Kd with Human PD-L1-Fc [20] and with Human PD-L2-Fc [7] were 6.85 nM and 0.56 nM, respectively.

B9: BiPDL4-44 Fab (Fab, V domains shown)
VH: B5 VH
VL: B5 VL
notes: as for B2
Regarding B9, the Kd is 0.15 nM in the test with Human b-PD-L2-His [14], 6 nM in the test with Human PD-L1-Fc [15] and 0.437 nM with Human PD-L2-Fc [16].

B10: BiPDL4-14 Fab (Fab, V domains shown)
VH: B5 VH with I12V, S30D, A31E, L33G, A50V, M56L
VL: B5 VL with H27Q, S28F, V30Y, Y33D, S54T, E56K, D57T, V90L
notes: as for B2
Turning to B10, the Kd with Human b-PD-L1-His [17] was found to be 0.12 nM; in the test with Human b-PD-L2-His [14], 0.11 nM; with Human PD-L1-Fc [15], 0.692 nM; with Human PD-L2-Fc [16], 0.402 nM; with Human b-PD-L1-His [18], 0.12 nM; with Human b-PD-L2-His [19] it was 0.11 nM. Further, the Kd worked out at 2.26 nM with Human PD-L1-Fc [20] and 0.402 nM with Human PD-L2-Fc [7].
